Measured values from the DeepSol protein solubility set.

Assay: soluble on expression in E. coli; label from the status in PepcDB or PDB records

Sequence	soluble on expression in E. coli
MTKTQLVCDKNQLNWGLKAAKAIAGKSPYDVVQMRVSPDRDYLYICAVNAEATLVAKVELLVANISSEEDEIITIDKAKIPALILATAETGKKSEDSRPMAGICIRGKEVDFTDENGAGRGVDLTTIHRNDSAEIGDPVRTIIRVKQ	not soluble
MTKVTHLPADDRSCGWYHLSPPRRPKPAHYGRSAARWVVVGAGFTGLAAARQLALHFPDEEIVLVEAQEVGFGTAGRNAGFAIDLPHDIGADDYIGDIATARIGLKLNLAGQSLLREQVQRHAIDCQMKACGKYQAAVEARGVAVLDAYRRGLDRLGQAYEVIEADDLPGNIGTAFYRKALFTPGTLLVQPSALVKGLADSLPGNVSLYEHTPITAVEYGDRTLLSHPHGSILADRLVLANNAFGMSFGFLQGRMLPIFTYASLTRPLDAEEQARLGGRPYWGLIPANPYGTTVRRTPDNRLLIRNSFSFNPDGRSAGKYLERFAVRHRASFRQRFPMLPEVGFDYTWGGSLALSRNHMGHFGELAPNVYGALCCNGLGVTRGTVTGKLLADWLAGERNELIDFLLRAPGPSGNPPEPLLSLGVNLNLRWGQYRAGRESLEHHHHHH	not soluble
MTKVTREEVEHIANLARLQISPEETEEMANTLESILDFAKQNDSADTEGVEPTYHVLDLQNVLREDKAIKGIPQELALKNAKETEDGQFKVPTIMNEEDA	soluble
MTLDELNRLLDPQVLALIDAHASDDPATFAMQFHGRGDLPVRAIAEQIACRKKAAAKLPSLSRFPMLYTRL	not soluble
MTLEKFVDALPIPDTLKPVQQSKEKTYYEVTMEECTHQLHRDLPPTRLWGYNGLFPGPTIEVKRNENVYVKWMNNLPSTHFLPIDHTIHHSDSQHEEPEVKTVVHLHGGVTPDDSDGYPEAWFSKDFEQTGPYFKREVYHYPNQQRGAILWYHDHAMALTRLNVYAGLVGAYIIHDPKEKRLKLPSDEYDVPLLITDRTINEDGSLFYPSAPENPSPSLPNPSIVPAFCGETILVNGKVWPYLEVEPRKYRFRVINASNTRTYNLSLDNGGDFIQIGSDGGLLPRSVKLNSFSLAPAERYDIIIDFTAYEGESIILANSAGCGGDVNPETDANIMQFRVTKPLAQKDESRKPKYLASYPSVQHERIQNIRTLKLAGTQDEYGRPVLLLNNKRWHDPVTETPKVGTTEIWSIINPTRGTHPIHLHLVSFRVLDRRPFDIARYQESGELSYTGPAVPPPPSEKGWKDTIQAHAGEVLRIAATFGPYSGRYVWHCHILEHEDYDMMRPMDITDPHK	soluble
MTLHKPTQAVPCRAPKVGRLIYTAGGYFRQSLSYLEAYNPSNGSWLRLADLQVPRSGLAGCVVGGLLYAVGGRNNSPDGNTDSSALDCYNPMTNQWSPCASMSVPRNRIGVGVIDGHIYAVGGSHGCIHHSSVERYEPERDEWHLVAPMLTRRIGVGVAVLNRLLYAVGGFDGTNRLNSAECYYPERNEWRMITPMNTIRSGAGVCVLHNCIYAAGGYDGQDQLNSVERYDVETETWTFVAPMRHHRSALGITVHQGKIYVLGGYDGHTFLDSVECYDPDSDTWSEVTRMTSGRSGVGVAVTMEPCRKQIDQQNCTCY	soluble
MTLTDISLAQAFISIPQDVIALDLSNNLLGSKSCVDLLVNIADCIPAGVTSLDLSSNGLRLTQVSLVTPKHVTSLNLCFNPLHEISIDGLEWLKDSLAHIQIIYLSYDMVNNMSREQRQAFRAVIPNIQTIILVDKNGKEIGPSHTAKIANLISELGGGNPEVPSLEHHHHHH	not soluble
MTLVIGLTGGIASGKSTVANMLIEKGITVIDADIIAKQAVEKGMPAYRQIIDEFGEDILLSNGDIDRKKLGALVFTNEQKRLALNAIVHPAVRQEMLNRRDEAVANREAFVVLDIPLLFESKLESLVDKIIVVSVTKELQLERLMKRNQLTEEEAVSRIRSQMPLEEKTARADQVIDNSGTLEETKRQLDEIMNSWALEHHHHHH	soluble
MTMNIAVVSGRIAPELTLPGLNFSRAYAPSTDFRSARLGLLTGQYPQRQPVTRFASLIGTVAEDFSPADVHIIERAEITPDLLDQAHDSGAATFFVGHPTIDDHRVRMSLLWPGVTDTNLPHDTIDGVVTCNELVSTLDIAPTLAAIAGYDVRPNAQLSFDGMNLTPVIRYGATGHGGLFFDDGTVITPTEVRRQANDPEWTMWHQFMNMGPLQ	not soluble
MTMTLVNKNRKSRDENAMAKYNEKELADTSKFLSFVLRHKPEAIGIVLDREGWADINKLILCAQKAGKRLTRALLDTVVATSDKKRFSYSSDGRCIRAVQGHSTSQVAISFAEKTPPQFLYHGTASRFLDEIKKQGLIAGDRHYVHLSADEATARKVGARHGSPVVLTVKAQEMAKRGIPFWQAENGVWLTSTVAVEFLEWSFMPTGVQKQLEHHHHHH	soluble
MTMTTMPESLNSPVSGKAVFMEFGPPNQQMSPSPMSHGHYSMHCLHSAGHSQPDGAYSSASSFSRPLGYPYVNSVSSHASSPYISSVQSYPGSASLAQSRLEDPGQDLVPKQAIQVQEADEAGWGGSGG	soluble
MTNEEPKSPEKVERRRSTQEDSEKDKKRSRDDRKTEKRTHDRDRKRNRSRSRSRSRSPKRSRRDKKEEKQEQEEEDGEIRDTTPPAPEKPRQLTARELERQRIIEEELKSGKHDEHDDDPVWSMKKAQAEKKSRMCPYLDTIDRSVLDFDFEKQCSVSLSHQNVYACMVCGKYFQGRGTNTHAYTHALETDHHVFLNLQTLKFYCLPDNYEVIDPSLEDIKYVLKPTYTKEMIASIDKQSKMVRAYDDSTYFPGVVGLNNIKANDYCNAILQALSAVRPLRNWFLKESNYTSIKRPPGDKLTLLPQRFGELIRKLWNPRALRTHVSPHEMLQAVVVCSNKKFQFIKQNDAADFMLFLLTTLHSALNGTDKKPSIISKTFRGRMRQYSRRVIPAEDTDEEKYMKLRMPEYQEKVIESPFLYLTLDLPSAPLYRDVQLQNIIPQVPLSTLLEKFDGKTEKEYPTYNDNNIMKRFELLQLPDFLIITYKRFQKNQWFVEKNPTIVNFPIANVDFYDCLAKDARANHKYTTYDLVANVVHEGTFKDGNYRIQIVHEGSGKWFELEDLHVKDLLPQMIVLAESYIQIWRLNKEQTRDERAEGEPMQN	not soluble
MTNKEKPIKHLVIDTCAIIANRNLHALADHYYAPPQILDELRSSAARKLWNTLPFEVTLREPTQTALRAVIDASKTTGDFQSLSMVDIKMIALTYDLHRQYVAENDVAETTEDDEKKNIEDLSAKVEQVTVGENTEDTKEEEIEENEESEDSAVSEGSESSESSESFDEDGWITQDNIEETLKKLGAFEIEENMLVGCLTTDFALQNVLLAMNLSLVSLSGYRIRKLKSFVLRCRTCFSTTSVMTKEFCPACGHKTLHKCAVSVDEDGNQQLHINWNRMANRRGLVYTLANPKGGKHATNERLFEDQPMPHMRMAKIHMDPLADGPFSVHDVTSRSAMLGVRTINNRAKQNRNPNESKRGGRRK	not soluble
MTNLETYFKNSQPLNEYIDGMKTNQDTVLSIYQSFELPEDDSRIKKIKEMNYSKVLVITEDWCGDAMMNLPILKHISEALNLEVRVFHRDDDTKLIDQYLTNGKSRAIPIFVFLNDQFEQETVWGPRANEVQKFVTDVRADKLPSKDHPDYADLEKETHLVISNRYKTDASFWKAVYNSILNKLENK	not soluble
MTNPTKPIPLNFDKPRRFMPPKHFADLSADERIDALKELGLPKFRANQIARHYYGRLEADPSTMTDLPAAAREKVKDALFPQLMQPVRAVQADDGETQKTLWKLHDGTLLESVLMRYPNRATLCISSQAGCGMACPFCATGQGGLDRNLSTGEIVDQVRAASATMQAEGGRLSNIVFMGMGEPLANYKRVVSAVRQITAPVPEGFGISQRNVTVSTVGLAPAIRKLADEDLSVTLAVSLHTPDDELRNTLVPTNNRWEVAEVLDAARYYADRSGRRVSIEYALIRDVNDQGWRADMLGKKLHKALGPLVHVNLIPLNPTPGSKWDASPMDRQKEFVQRVIAQGVTCTVRDTRGQEIAAACGQLAAEER	not soluble
MTNQQDYTQDNDKLYRYLFQHRAVRGEWVRLNKTFTDTLNTHQYPKAVQDLLGEMMVATNLLTATLKFAGNITVQIQGDGPLRLALVNGNDQQQIRALARVDGNITENMSLHNMIGKGVLVITIAPKEGERYQGVISLDKPTITECLEDYFVRSEQLQTQLIIRTGEYEGKPVAAGMLLQIMPDGSGTPEDFEHLTTLAATVKDEELFGLPAEELLYRLYHEETVNLYPAQDVQFFCGCSAERSSSALLLISDEEIDEILAEHKGRIDMQCECCGTHYFFNKEAIEKLKSTRV	not soluble
MTNVLILGAAGQIARLAEQQFLANTTDNLTLYLRNSSRVADQQSDRVTIIDGDTTDEAKLTQAMTGQDVVYANLAGQNIKQQAETVLKAMHTSGLKRLIWISTLGIYDEVPGKFGQWNNATLGSYLTRYYAAAEVLENSDLDYTIIRPAWLTNKDEIDYEITQRHDPFKGTEVSRKSIAALVVKLTQDPTSNIRTSLGVNKPNTDGDKPAWY	not soluble
MTPFMTEDFLLDTEFARRLYHDYAKDQPIFDYHCHLPPQQIAEDYRFKNLYDIWLKGDHYKWRAMRTNGVAERLCTGDASDREKFDAWAATVPHTIGNPLYHWTHLELRRPFGITGKLLSPSTADEIWNECNELLAQDNFSARGIMQQMNVKMVGTTDDPIDSLEHHAEIAKDGSFTIKVLPSWRPDKAFNIEQATFNDYMAKLGEVSDTDIRRFADLQTALTKRLDHFAAHGCKVSDHALDVVMFAEANEAELDSILARRLAGETLSEHEVAQFKTAVLVFLGAEYARRGWVQQYHIGALRNNNLRQFKLLGPDVGFDSINDRPMAEELSKLLSKQNEENLLPKTILYCLNPRDNEVLGTMIGNFQGEGMPGKMQFGSGWWFNDQKDGMERQMTQLAQLGLLSRFVGMLTDSRSFLSYTRHEYFRRILCQMIGRWVEAGEAPADINLLGEMVKNICFNNARDYFAIELN	soluble
MTPHPRLSIGLPVYNGEEYLAESLDALLGQTYENFELVISDNASTDGTRDICRRYAAQDSRIRYIRLPRNIGAAPNHNYVFTECRGELFKWASHDDLYARDLLRSCVAALDERPEVVLAHAGQAVIDGDGKVKVPYEYGLATDSPRAPERFRSLLFEPGGDDFYGVMRSAMLRRVKPHDSYHHADRTFVAEITLHGPFHQVPELLYFRRDHPTRAERANPSKRSRCVNLDPRRAGPLHPTPRLLAEYVWGFASAIGRAPLSSADRRACHRHLAAWLTSRVRPGVGERVEDRAPVDPDRLTVSVDDLVAGREGRQALEHHHHHH	not soluble
